Target: T1, human Keratin 17
T1 chain: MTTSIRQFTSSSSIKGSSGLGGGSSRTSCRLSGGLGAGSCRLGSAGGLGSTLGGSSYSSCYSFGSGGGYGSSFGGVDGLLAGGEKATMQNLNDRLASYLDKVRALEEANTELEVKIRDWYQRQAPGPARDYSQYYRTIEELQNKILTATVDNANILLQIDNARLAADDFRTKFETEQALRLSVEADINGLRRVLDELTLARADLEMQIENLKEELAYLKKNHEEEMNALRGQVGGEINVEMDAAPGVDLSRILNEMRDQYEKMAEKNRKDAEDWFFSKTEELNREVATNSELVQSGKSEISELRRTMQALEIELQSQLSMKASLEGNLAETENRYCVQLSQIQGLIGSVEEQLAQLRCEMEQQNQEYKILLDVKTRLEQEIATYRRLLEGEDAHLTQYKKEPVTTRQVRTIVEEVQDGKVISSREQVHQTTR

B1: RgpB (protein)
chain: YTPVEEKENGRMIVIVPKKYEEDIEDFVDWKNQRGLRTEVKVAEDIASPVTANAIQQFVKQEYEKEGNDLTYVLLVGDHKDIPAKITPGIKSDQVYGQIVGNDHYNEVFIGRFSCESKEDLKTQIDRTIHYERNITTEDKWLGQALCIASAEGGPSADNGESDIQHENIIANLLTQYGYTKIIKCYDPGVTPKNIIDAFNGGISLANYTGHGSETAWGTSHFGTTHVKQLTNSNQLPFIFDVACVNGDFLYNVPCFAEALMRAQKDGKPTGTVAIIASTINQSWASPMRGQDEMNEILCEKHPNNIKRTFGGVTMNGMFAMVEKYKKDGEKMLDTWTVFGDPSLLVRTLVPTKMQVTAPANISASAQTFEVACDYNGAIATLSDDGDMVGTAIVKDGKAIIKLNESIADETNLTLTVVGYNKVTVIKDVKVEG
  enzymatic degradation products detected by mass spectrometry (on spot profiling): peptides consisting of the amino acid sequences shown by SEQ ID NOs: 6-10 (peptides 8-12) were newly identified as RgpB degradation products of human Keratin 17

Source: US20130086703
